Where two headings read alike, the source gives them in different places. Where no end group is shown, it is not given here.
B1: Phage-49 clonal phage peptide (peptide, not shown: large carriers)
peptide: MSWCPIHLWNECFN
modifications: cysteine pairing not given here; also: displayed on phage by fusion to pIII, linker and pIII sequence not given here
B2: Phage-50 clonal phage peptide (peptide, not shown: large carriers)
peptide: MDWCPPYLWNVCFS
modifications: cysteine pairing not given here; also: displayed on phage by fusion to pIII, linker and pIII sequence not given here
B3: Phage-51 clonal phage peptide (peptide, not shown: large carriers)
peptide: MDWCPMDLWDYCFN
modifications: cysteine pairing not given here; also: displayed on phage by fusion to pIII, linker and pIII sequence not given here
B4: Phage-52 clonal phage peptide (peptide, not shown: large carriers)
peptide: MDWCPINLWDECFS
modifications: cysteine pairing not given here; also: displayed on phage by fusion to pIII, linker and pIII sequence not given here
B5: Phage-53 clonal phage peptide (peptide, not shown: large carriers)
peptide: MDWCPMHLWNKCFN
modifications: cysteine pairing not given here; also: displayed on phage by fusion to pIII, linker and pIII sequence not given here
B6: Phage-54 clonal phage peptide (peptide, not shown: large carriers)
peptide: MNWCPRDMWYQCFN
modifications: cysteine pairing not given here; also: displayed on phage by fusion to pIII, linker and pIII sequence not given here
B7: Phage-55 clonal phage peptide (peptide, not shown: large carriers)
peptide: QDWCPRHMWSFCFH
modifications: cysteine pairing not given here; also: displayed on phage by fusion to pIII, linker and pIII sequence not given here
B8: Peptide-261 (peptide)
peptide: YFVQCRPAWMCEGF
notes: From the Peptide-180 optimisation phage library
B9: Peptide-262 (peptide)
peptide: IVPLCKPAWMCKLF
notes: as for B8
B10: Peptide-264 (peptide)
peptide: VQIQCRPAWMCLGF
notes: as for B8
B11: Peptide-265 (peptide)
peptide: AEVKCIPQWMCQGF
notes: as for B8
B12: Peptide-266 (peptide)
peptide: TAHHCKPAWMCTGF
notes: as for B8
B13: Peptide-269 (peptide)
peptide: EEPLCRPVWMCEGF
notes: as for B8
B14: Peptide-272 (peptide)
peptide: LHVYCVPEWMCAGF
notes: as for B8
B15: Peptide-273 (peptide)
peptide: LEPLCVPRWMCVGF
notes: as for B8
B16: Peptide-276 (peptide)
peptide: ITPICKPAWICSGF
notes: as for B8
B17: Peptide-278 (peptide)
peptide: PEHLCLPRWMCEGF
notes: as for B8
B18: Peptide-279 (peptide)
peptide: YERACIPNWICEGF
notes: as for B8
B19: Peptide-280 (peptide)
peptide: TTHVCIPSWMCSGF
notes: as for B8
B20: Peptide-281 (peptide)
peptide: VNHWCVPTWMCAGF
notes: as for B8
B21: Peptide-287 (peptide)
peptide: PERLCTPPWMCLGF
notes: as for B8

Columns and labels:
[1] = target: T1, Anti-CD28 scFv (VH - linker 1 - VL) (biotinylated (site not stated)); test: phage binding ELISA on captured anti-CD28 scFv; wells pre-incubated with soluble CD28 protein (competitor)
T1 sequence (scFv, as listed by the source): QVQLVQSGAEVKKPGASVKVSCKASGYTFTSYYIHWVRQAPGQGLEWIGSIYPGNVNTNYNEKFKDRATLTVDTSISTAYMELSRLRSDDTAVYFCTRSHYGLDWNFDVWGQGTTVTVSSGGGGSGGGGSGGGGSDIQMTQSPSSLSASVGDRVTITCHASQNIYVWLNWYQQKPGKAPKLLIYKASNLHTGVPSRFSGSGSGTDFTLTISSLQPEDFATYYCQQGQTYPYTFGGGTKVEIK

[2] = target: T1, Anti-CD28 scFv (VH - linker 1 - VL); test: phage binding ELISA; biotinylated anti-CD28 scFv on neutravidin plate, clonal phage supernatant, anti-M13 HRP detection
Description: (§1) Clonal phage were harvested as crude supernatants and screened via standard enzyme linked immunosorbent assays (ELISAs). […] Prior to the addition of clonal phage, wells were incubated with blocking buffer and CD28 soluble protein or blocking buffer alone. Without washing or aspirating, clonal phage supernatants were then added to the wells and incubated for a short time. Wells were then washed followed by detection of bound phage using a horse radish peroxidase conjugated anti-M13 antibody.

[3] = target: T2, anti-CD28 scFv (VH - linker 1 - VL) (biotinylated (site not stated)); test: phage ELISA; biotinylated anti-CD28 scFv on neutravidin plate, clonal phage supernatant, anti-M13-HRP;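 note: before the phage were added, wells were pre-incubated with soluble CD28 protein in blocking buffer, or with blocking buffer alone, and were not washed in between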
T2 sequence (scFv, as listed by the source): as above

[4] = target: T2, anti-CD28 scFv (VH - linker 1 - VL); test: phage ELISA as above; wells pre-incubated with soluble CD28 (competitor)
Description: as §1

PSMA Fab [5] = target: T3, PSMA Fab; test: competition ELISA; peptide 0-100 µM with 0.3 nM PSMA Fab on plate-captured biotinylated PSMA
T3 construct: also called 006 PSMA Fab; anti-PSMA Fab

PSMA Fab [6] = target: T3, PSMA Fab; test: as above; remark: listed apart in the source

Binder | CD28 scFv signal in presence of CD28 [1] | CD28 scFv signal [2] | IC50 (PSMA Fab [6]) | other results
MDWCPIDMWDQCFN (peptide, not shown: large carriers) [Phage-40 clonal phage peptide] | 0.297 | 2.66 | – | –
MAWCPRDKWSECFS (peptide, not shown: large carriers) [Phage-41 clonal phage peptide] | 0.147 | 0.853 | – | –
MDWCPRHLWVHCFN (peptide, not shown: large carriers) [Phage-42 clonal phage peptide] | 0.254 | 2.5 | – | –
MDWCPIALWAECFN (peptide, not shown: large carriers) [Phage-44 clonal phage peptide] | 0.224 | 2.46 | – | –
MDWCPRALWAECFN (peptide, not shown: large carriers) [Phage-64 clonal phage peptide] | 0.339 | 2.68 | – | –
MDWCPRPLWHECFS (peptide, not shown: large carriers) [Phage-45 clonal phage peptide] | 0.121 | 2.35 | – | –
MHWCPIDLWAECYA (peptide, not shown: large carriers, cysteine pairing not given here; also: displayed on phage, fused to pIII) [Phage-46 clonal phage peptide] | 0.225 | 2.28 | – | –
MAWCPVYLWHECFN (peptide, not shown: large carriers) [Phage-47 clonal phage peptide] | 0.351 | 2.27 | – | –
IDWCPRYLWDECYN (peptide, not shown: large carriers) [Phage-48 clonal phage peptide] | 0.153 | 2.24 | – | –
B1 | 0.284 | 2.06 | – | –
B2 | 0.1 | 1.64 | – | –
B3 | 0.107 | 1.64 | – | –
B4 | 0.096 | 1.5 | – | –
B5 | 0.122 | 1.04 | – | –
B6 | 0.177 | 1.95 | – | –
B7 | 0.081 | 0.074 | – | –
MHWCPMDQWSNCFN (peptide, not shown: large carriers) [Phage-56 clonal phage peptide] | 0.084 | 0.515 | – | –
MDWCPRHRWVDCFY (peptide, not shown: large carriers) [Phage-57 clonal phage peptide] | 0.11 | 0.478 | – | –
MHWCPIDRWADCFN (peptide, not shown: large carriers) [Phage-58 clonal phage peptide] | 0.077 | 0.287 | – | –
MDWCPRDSWHLCFA (peptide, not shown: large carriers) [Phage-59 clonal phage peptide] | 0.147 | 2.45 | – | –
MDWCPRILWHECFS [Phage-362 clonal phage peptide MDWCPRILWHECFS] | – | – | – | CD28 scFv signal [3]: 1.39; CD28 scFv signal in presence of CD28 [4]: 0.174
MNWCPMHLWAECFN [Phage-363 clonal phage peptide MNWCPMHLWAECFN] | – | – | – | CD28 scFv signal [3]: 1.39; CD28 scFv signal in presence of CD28 [4]: 0.14
B8 | – | – | – | IC50 (PSMA Fab [5]): 1300 nM
B9 | – | – | – | IC50 (PSMA Fab [5]): 1300 nM
B10 | – | – | – | IC50 (PSMA Fab [5]): 1140 nM
B11 | – | – | – | IC50 (PSMA Fab [5]): 1780 nM
B12 | – | – | – | IC50 (PSMA Fab [5]): 1810 nM

Binder | CD28 scFv signal in presence of CD28 [1] | CD28 scFv signal [2] | IC50 (PSMA Fab [6]) | other results
B13 | – | – | – | IC50 (PSMA Fab [5]): 9140 nM
B14 | – | – | – | IC50 (PSMA Fab [5]): 1920 nM
B15 | – | – | – | IC50 (PSMA Fab [5]): 900 nM
B16 | – | – | – | IC50 (PSMA Fab [5]): 3460 nM
B17 | – | – | – | IC50 (PSMA Fab [5]): 2400 nM
B18 | – | – | – | IC50 (PSMA Fab [5]): 5180 nM
B19 | – | – | – | IC50 (PSMA Fab [5]): 6650 nM
B20 | – | – | – | IC50 (PSMA Fab [5]): 1020 nM
B21 | – | – | – | IC50 (PSMA Fab [5]): 2220 nM
WEKLCTPAWMCVGF [Peptide-214] | – | – | 3540 nM | –
LEKLCIPAWMCEWL [Peptide-215] | – | – | 2940 nM | –
VLKWCRPAWMCEVL [Peptide-216] | – | – | 2910 nM | –
VGKLCVPEWMCVGL [Peptide-217] | – | – | 2490 nM | –
FVPLCKPAWMCSFV [Peptide-218] | – | – | 2850 nM | –
FEKLCVPKWMCEGI [Peptide-220] | – | – | 1570 nM | –
IDKLCIPFWMCENL [Peptide-221] | – | – | 2130 nM | –
FEKWCTPPWMCSLF [Peptide-222] | – | – | 4160 nM | –
DLRLCKPAWMCYFI [Peptide-223] | – | – | 1470 nM | –
DLRLCKPAWMCDFI [Peptide-231] | – | – | 1270 nM | –
EGIRCTPIWMCEGF [Peptide-224] | – | – | 1880 nM | –
LTKLCIPDWMCSEF [Peptide-226] | – | – | 2680 nM | –
EFKWCIPSWMCHET [Peptide-228] | – | – | 1920 nM | –
VVKACIPTWMCQFV [Peptide-229] | – | – | 4070 nM | –
LEKTCIPTWMCVGF [Peptide-234] | – | – | 2080 nM | –
ISKWCIPEWMCTSP [Peptide-237] | – | – | 2700 nM | –
LEKLCKPAWMCVNF [Peptide-238] | – | – | 1550 nM | –
